Primed or numbered codes have the meaning given here. Where no end group is shown, it is not given here. [ ]: non-standard residue; d: D form. PEG10′ = non-peptide PEG10 spacer
B1: composition SEQ ID NO:139 (X1 SEQ ID NO:41 - J - X2 SEQ ID NO:118, with C-terminal GSSGK linker, biotinylated) (peptide)
peptide: SWWGFWNGSAAPVWSRGSSGAGALGFPLKGEVVEGWAGSSGK
modifications: also: biotin linked to C-terminal GSSGK linker, site not given here
B2: composition SEQ ID NO:142 (X1 SEQ ID NO:42 - PEG10 linker - X2 derived from SEQ ID NO:91, with C-terminal GSSGK linker) (peptide)
peptide: SFGSWWWGSGAASSRG[PEG10′]AGAWEAFSSLSGSRVGSSGK
modifications: also: C-terminal amino linker biotinylated
B3: composition SEQ ID NO:141 (X1 SEQ ID NO:42 - PEG10 linker - X2 SEQ ID NO:91, with C-terminal GSSGK linker) (peptide)
peptide: SFGSWWWGSGAASSRG[PEG10′]GGGAWEAFSSLSGSRVGSSGK
modifications: also: C-terminal amino linker biotinylated
B4: composition SEQ ID NO:137 (X1 SEQ ID NO:41 - J - X2 SEQ ID NO:91, with C-terminal GSSGK linker, biotinylated) (peptide)
peptide: SWWGFWNGSAAPVWSRGSSESAGAWEAFSSLSGSRVGSSGK
modifications: also: biotin linked to C-terminal GSSGK linker, site not given here
B5: composition SEQ ID NO:140 (X1 SEQ ID NO:42 - J - X2 SEQ ID NO:118, with C-terminal GSSGK linker, biotinylated) (peptide)
peptide: SFGSWWWGSGAASSRGSSGGGALGFPLKGEVVEGWAGSSGK
modifications: also: biotin linked to C-terminal GSSGK linker, site not given here
B6: composition SEQ ID NO:138 (X1 SEQ ID NO:41 - J - X2 SEQ ID NO:91, with C-terminal GSSGK linker, biotinylated) (peptide)
peptide: SWWGFWNGSAAPVWSRGSSGAGAWEAFSSLSGSRVGSSGK
modifications: also: biotin linked to C-terminal GSSGK linker, site not given here

Target: BMP2 (Bone Morphogenetic Protein 2) (UniProt P12643 283-396)
Assay: ELISA: composition (10 uM) pre-bound to DBM, serial dilutions of BMP-2, detected with anti-BMP-2 antibody
Procedure: A binding assay was performed using ELISA; and the resultant absorbance observed across the concentration range of pharmaceutically active agent yielded a binding curve and rough dissociation constant of the composition which were used to calculate an EC50. Appropriate controls, including absence of the composition, were included in the assay.
As a specific example, DBM was placed in a microtiter plate at a concentration of 3 mg equivalents per well, and then the wells and DBM were blocked with buffer containing 1% BSA for 1 hour at room temperature. The buffer containing 1% BSA was then aspirated from each well, and added to each of the wells was 100 μl of buffer containing 10 μM of the respective composition embodiments. The microtiter plates were incubated for 1 hour at room temperature on a plate shaker. The DBM was then allowed to settle, and the buffer was then aspirated from the wells. The DBM was washed three times with buffer-T, and then serial dilutions of BMP-2 were added to the wells in 100 μl of buffer. The microtiter plates were then incubated for 1 hour at room temperature on a plate shaker. The DBM, having composition bound thereto, was then allowed to settle, and then buffer was aspirated from the wells. The DBM-composition combination was washed three times with buffer-T. Commercial murine anti-BMP-2 antibody was diluted 1:1000 in buffer containing 1% BSA, and 100 μl was added per well. The plates were incubated for 30 minutes at room temperature on a plate shaker, and then the wash step was repeated. Commercial anti-mouse antibody labeled with alkaline phosphatase was diluted 1:1000 in buffer containing 1% BSA, and 100 μl was added per well. The plates were incubated for 30 minutes at room temperature on a plate shaker, and then the wash step was repeated. Added to each well was 200 μl of substrate pNPP, and the plates were incubated at room temperature on a plate shaker to develop the assay. 100 μl of solution was removed from each well and added to a respective well of a new microtiter plate which was then read on a spectrophotometer and the absorbance was recorded at 405 nm. An estimate of the relative affinity, binding specificity, EC50 of the composition for pharmaceutically active agent can be made by determining the concentration of peptide that provides one-half the maximal signal in the assay.

Chain of BMP2 (Bone Morphogenetic Protein 2) (P12643 283-396 limits assumed): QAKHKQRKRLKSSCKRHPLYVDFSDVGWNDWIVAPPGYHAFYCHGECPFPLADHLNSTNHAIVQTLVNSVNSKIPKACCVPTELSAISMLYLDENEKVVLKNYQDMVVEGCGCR

EC50, < 0.01 µM:
B1
B2
B3
B4
B5
B6

From patent US20080268015A1 (AFFINERGY, published 2008)
